experiment: soluble on expression in E. coli; label from the status in PepcDB or PDB records

| Sequence | soluble on expression in E. coli |
| --- | --- |
| KTISLYKTKIPQDKTENVDAFLVTDSELISKLEKAKNKKEETKASGKSASARVAVQATQKKQSNEKQIVGYTTTSALSEDGKHIFKLGKLNSENYERKIIVGATVETLEQSTTLQSEEAIVLAAPGKYKDSDQKRVMITQGPNLIGVHANTKENEETKKFVNW | not soluble |
| KTNTATVKVLPISMSDEGDSFLVKDSLGENKIPKNPSKVVILDLGILDTFDALKLNDKVVGVPAKNLPKYLQQFKNKPSVGGVQQVDFEAINALKPDLIIISGRQSKFYDKLKEIAPTLFVGLDNANFLSSFENNVLSVAKLYGLEKEALEKISDIKNEIEKAKSIVDEDKKALIILTNSNKISAFGPQSRFGIIHDVLGINAVDENIKVGTHGKSINSEFILEKNPDYIFVVDRNVILGNKERAQGILDNALVAKTKAAQNKKIIYLDPEYWYLASGNGLESLKTMILEIKNAVK | soluble |
| KVNMDLRANLKQVKKEDTEKEKDLRDVGDWRKNIEEKSGMEGRKKMFEAGES | soluble |
| KVWAFDIQPQALNNTRCRLQEAGYSNVRLILDGHENLKQYIPKPLDAAIFNFGWLPGGDKSLTTRTETSIAALSATLSLLKENGMLIAVLYPGHENGKQEAEAIEQWAKNLPQEQFAVLRYGFTNRKNSPPYLLVFEKLRQK | not soluble |
| KYPFLREAGSSFKDRDVTKMSDLIATWDGQDIKGPALIGVPLSKSSISHSGASFAPGTIRQALKHSSAYSAELGEHVVSELLYDLGDIDIHVTDIVKSHHHIFQTMHALLSDHPDWVPLILGGDNSISYSTIKAIAQTKGTTAVIQFDAHHDVRNTEDGGPTNGTPFRRLLDEEIIEGQHLIQLGIREFSNSQAYEAYAKKHNVNIHTMDMIREKGLIPTIKEILPVVQDKTDFIFISVDMDVLDQSHAPGCPAIGPGGLYTDELLEAVKYIAQQPNVAGIEIVEVDPTLDFRDMTSRAAAHVLLHALK | not soluble |
| LDDEDVDTVVDHCGDILEHFERLEEVPEVDAEPELVNVMRADEIADSLDQDDALANAPETEDGRF | soluble |
| LDGIAELTGARVEDLAGMDVFQGCPAEGLVSLAASVQPLRAAAGQVLLRQGEPAVSFLLISSGSAEVSHVGDDGVAIIARALPGMIVGEIALLRDSPRSATVTTIEPLTGWTGGRGAFATMVHIPGVGERLLRTARQRLAAFVSPIPVRLADGTQLMLRPVLPGDRERTVHGHIQFSGETLYRRFMSARVPSPALMHYLSEVDYVDHFVWVVTDGSDPVADARFVRDETDPTVAEIAFTVADAYQGRGIGSFLIGALSVAARVDGVERFAARMLSDNVPMRTIMDRYGAVWQREDVGVITTMIDVPGPGELSLGREMVDQINRVARQVIEAVG | not soluble |
| LDNAPLLELDVQEWVNHEGLSNEDLRGKVVVVEVFQMLCPGCVNHGVPQAQKIHRMIDESQVQVIGLHSVFEHHDVMTPEALKVFIDEFGIKFPVAVDMPREGQRIPSTMKKYRLEGTPSIILADRKGRIRQVQFGQVDDFVLGLLLGSLLSETD | not soluble |
| LDRAYLRVENQRYRDKLEAANRELQASLNLLQEDQNAGRQVQMNMLPVTPWSIEGLEFSHRIIPSLYLSGDFVDYFRVDERRVAFYLADVSGHGASSAFVTVLLKFMTTRLLYESRRNGTLPEFKPSEVLAHINRGLINTKLGKHVTMLGGVIDLEKNSLTYSIGGHLPLPVLFVEGQAGYLEGRGLPVGLFDDATYDDRVMELPPSFSLSLFSDGILDVLPGATLKEKEASLPEQVAAAGGTLDGLRQVFGLANLAEMPDDIALLVLSRNLA | not soluble |
| LEDFNVTSKVIELDVRKPTPEAAENLNIGMDEDIYYVKRVRYINGQTLCYEESYYTKSIVTYLNNEIVSHSIFHYIREGLGLKIGFSDLFLHVGQLNEEEAEYLGLEAGLPKLYIESIFHLTNGQPFDYSKISYNYEQSQ | not soluble |
| LETLNNASKTIDLQGKISDVDGDTLSITLHGSARFSLNGTQVTFTPNGFVGLDQAVYSVEDGKGGYALANIVAISEDANPPVPNMAPTANDAQFTLDVAKNVTFNIDLVAQRLIADADGDALSIAHIYTANNRATKQGATGITYTPGAFRGVDQFTYVITDGKDGYAINAITVVVNDSTPANKIPTAGPVTAKMLHNDPAITISVNSAVSDADGDTLKIVSISGALGQASINPANALEMLYEPKGFVGTDRFVYVVSDDNGGYAMGEVTVTVTDSNPTAPVANTVQENTLLDTPINIDLSAYISDKETETANLVISNVTNATSPAVATLSGQTVIYTPNGFTGNDILTYTVTDGRHSTNGTIVISVNAHGAHAIQADNLEGGTEPNAPFIHDLSALISTTDPTAGELIVVNAIGGALGTATVTNNILTYTPKLGVFGKDRLIYTVKDSHNPAHYTQGTISI | not soluble |

— the DeepSol protein solubility set
